For the assay, the target named is α5β1 integrin on mouse embryonic fibronectin-null fibroblasts (mouse) (UniProt P11688). Briefly: cell-based or functional assay.
α5β1 integrin on mouse embryonic fibronectin-null fibroblasts (mouse), sequence (P11688 45-1053, chain 1 of 2): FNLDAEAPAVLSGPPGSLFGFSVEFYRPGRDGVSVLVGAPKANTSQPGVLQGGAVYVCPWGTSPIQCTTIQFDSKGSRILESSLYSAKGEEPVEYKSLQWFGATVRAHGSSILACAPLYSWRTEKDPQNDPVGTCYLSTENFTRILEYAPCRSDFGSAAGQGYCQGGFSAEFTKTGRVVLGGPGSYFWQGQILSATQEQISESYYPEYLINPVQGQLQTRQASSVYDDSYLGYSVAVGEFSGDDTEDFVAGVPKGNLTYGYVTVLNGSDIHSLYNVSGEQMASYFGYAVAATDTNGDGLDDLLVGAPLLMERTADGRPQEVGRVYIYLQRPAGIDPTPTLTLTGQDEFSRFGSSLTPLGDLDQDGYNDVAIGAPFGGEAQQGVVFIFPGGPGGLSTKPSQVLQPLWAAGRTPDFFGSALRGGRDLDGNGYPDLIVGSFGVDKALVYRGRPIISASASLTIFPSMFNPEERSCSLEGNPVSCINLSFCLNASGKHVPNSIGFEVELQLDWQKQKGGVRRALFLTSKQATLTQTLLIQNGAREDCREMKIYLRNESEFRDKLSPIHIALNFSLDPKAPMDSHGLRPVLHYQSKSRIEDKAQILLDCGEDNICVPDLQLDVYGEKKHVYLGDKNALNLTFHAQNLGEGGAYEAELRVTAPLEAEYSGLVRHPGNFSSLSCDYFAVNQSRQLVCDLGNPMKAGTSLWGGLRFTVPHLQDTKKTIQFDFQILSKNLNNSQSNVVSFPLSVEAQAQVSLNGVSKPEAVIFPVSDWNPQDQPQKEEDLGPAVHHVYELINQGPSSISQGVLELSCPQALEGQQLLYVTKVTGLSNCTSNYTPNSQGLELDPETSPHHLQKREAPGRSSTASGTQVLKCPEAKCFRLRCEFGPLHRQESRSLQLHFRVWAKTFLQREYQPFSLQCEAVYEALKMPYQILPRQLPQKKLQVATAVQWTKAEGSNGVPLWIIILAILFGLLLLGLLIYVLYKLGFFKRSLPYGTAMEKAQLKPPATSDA
α5β1 integrin on mouse embryonic fibronectin-null fibroblasts (mouse), sequence (P09055 21-798, chain 2 of 2, further chain): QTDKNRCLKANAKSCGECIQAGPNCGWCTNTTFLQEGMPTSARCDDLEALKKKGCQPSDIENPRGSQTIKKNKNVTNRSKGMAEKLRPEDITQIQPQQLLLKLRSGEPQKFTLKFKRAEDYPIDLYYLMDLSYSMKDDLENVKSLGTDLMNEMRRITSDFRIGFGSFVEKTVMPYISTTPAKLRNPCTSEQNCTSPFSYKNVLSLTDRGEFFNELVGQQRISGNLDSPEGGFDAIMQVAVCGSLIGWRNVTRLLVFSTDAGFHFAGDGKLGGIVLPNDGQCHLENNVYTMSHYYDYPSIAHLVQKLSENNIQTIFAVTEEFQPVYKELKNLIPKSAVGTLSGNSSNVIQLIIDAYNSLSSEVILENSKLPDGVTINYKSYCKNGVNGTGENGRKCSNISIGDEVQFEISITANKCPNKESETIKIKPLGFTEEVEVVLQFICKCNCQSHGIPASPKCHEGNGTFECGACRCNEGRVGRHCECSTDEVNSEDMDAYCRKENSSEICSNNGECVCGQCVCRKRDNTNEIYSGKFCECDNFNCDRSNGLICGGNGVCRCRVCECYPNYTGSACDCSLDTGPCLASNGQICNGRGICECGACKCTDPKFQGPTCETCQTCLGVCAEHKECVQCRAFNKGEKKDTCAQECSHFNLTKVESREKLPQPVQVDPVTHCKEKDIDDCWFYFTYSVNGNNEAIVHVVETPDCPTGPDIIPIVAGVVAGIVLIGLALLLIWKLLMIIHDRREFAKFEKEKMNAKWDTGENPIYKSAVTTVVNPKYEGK

Human plasma fibronectin, P02751 32-2477 (other; Alexa^488 label where used as FN^488), sequence (P02751 other isoform, or with tags, fused parts or gaps): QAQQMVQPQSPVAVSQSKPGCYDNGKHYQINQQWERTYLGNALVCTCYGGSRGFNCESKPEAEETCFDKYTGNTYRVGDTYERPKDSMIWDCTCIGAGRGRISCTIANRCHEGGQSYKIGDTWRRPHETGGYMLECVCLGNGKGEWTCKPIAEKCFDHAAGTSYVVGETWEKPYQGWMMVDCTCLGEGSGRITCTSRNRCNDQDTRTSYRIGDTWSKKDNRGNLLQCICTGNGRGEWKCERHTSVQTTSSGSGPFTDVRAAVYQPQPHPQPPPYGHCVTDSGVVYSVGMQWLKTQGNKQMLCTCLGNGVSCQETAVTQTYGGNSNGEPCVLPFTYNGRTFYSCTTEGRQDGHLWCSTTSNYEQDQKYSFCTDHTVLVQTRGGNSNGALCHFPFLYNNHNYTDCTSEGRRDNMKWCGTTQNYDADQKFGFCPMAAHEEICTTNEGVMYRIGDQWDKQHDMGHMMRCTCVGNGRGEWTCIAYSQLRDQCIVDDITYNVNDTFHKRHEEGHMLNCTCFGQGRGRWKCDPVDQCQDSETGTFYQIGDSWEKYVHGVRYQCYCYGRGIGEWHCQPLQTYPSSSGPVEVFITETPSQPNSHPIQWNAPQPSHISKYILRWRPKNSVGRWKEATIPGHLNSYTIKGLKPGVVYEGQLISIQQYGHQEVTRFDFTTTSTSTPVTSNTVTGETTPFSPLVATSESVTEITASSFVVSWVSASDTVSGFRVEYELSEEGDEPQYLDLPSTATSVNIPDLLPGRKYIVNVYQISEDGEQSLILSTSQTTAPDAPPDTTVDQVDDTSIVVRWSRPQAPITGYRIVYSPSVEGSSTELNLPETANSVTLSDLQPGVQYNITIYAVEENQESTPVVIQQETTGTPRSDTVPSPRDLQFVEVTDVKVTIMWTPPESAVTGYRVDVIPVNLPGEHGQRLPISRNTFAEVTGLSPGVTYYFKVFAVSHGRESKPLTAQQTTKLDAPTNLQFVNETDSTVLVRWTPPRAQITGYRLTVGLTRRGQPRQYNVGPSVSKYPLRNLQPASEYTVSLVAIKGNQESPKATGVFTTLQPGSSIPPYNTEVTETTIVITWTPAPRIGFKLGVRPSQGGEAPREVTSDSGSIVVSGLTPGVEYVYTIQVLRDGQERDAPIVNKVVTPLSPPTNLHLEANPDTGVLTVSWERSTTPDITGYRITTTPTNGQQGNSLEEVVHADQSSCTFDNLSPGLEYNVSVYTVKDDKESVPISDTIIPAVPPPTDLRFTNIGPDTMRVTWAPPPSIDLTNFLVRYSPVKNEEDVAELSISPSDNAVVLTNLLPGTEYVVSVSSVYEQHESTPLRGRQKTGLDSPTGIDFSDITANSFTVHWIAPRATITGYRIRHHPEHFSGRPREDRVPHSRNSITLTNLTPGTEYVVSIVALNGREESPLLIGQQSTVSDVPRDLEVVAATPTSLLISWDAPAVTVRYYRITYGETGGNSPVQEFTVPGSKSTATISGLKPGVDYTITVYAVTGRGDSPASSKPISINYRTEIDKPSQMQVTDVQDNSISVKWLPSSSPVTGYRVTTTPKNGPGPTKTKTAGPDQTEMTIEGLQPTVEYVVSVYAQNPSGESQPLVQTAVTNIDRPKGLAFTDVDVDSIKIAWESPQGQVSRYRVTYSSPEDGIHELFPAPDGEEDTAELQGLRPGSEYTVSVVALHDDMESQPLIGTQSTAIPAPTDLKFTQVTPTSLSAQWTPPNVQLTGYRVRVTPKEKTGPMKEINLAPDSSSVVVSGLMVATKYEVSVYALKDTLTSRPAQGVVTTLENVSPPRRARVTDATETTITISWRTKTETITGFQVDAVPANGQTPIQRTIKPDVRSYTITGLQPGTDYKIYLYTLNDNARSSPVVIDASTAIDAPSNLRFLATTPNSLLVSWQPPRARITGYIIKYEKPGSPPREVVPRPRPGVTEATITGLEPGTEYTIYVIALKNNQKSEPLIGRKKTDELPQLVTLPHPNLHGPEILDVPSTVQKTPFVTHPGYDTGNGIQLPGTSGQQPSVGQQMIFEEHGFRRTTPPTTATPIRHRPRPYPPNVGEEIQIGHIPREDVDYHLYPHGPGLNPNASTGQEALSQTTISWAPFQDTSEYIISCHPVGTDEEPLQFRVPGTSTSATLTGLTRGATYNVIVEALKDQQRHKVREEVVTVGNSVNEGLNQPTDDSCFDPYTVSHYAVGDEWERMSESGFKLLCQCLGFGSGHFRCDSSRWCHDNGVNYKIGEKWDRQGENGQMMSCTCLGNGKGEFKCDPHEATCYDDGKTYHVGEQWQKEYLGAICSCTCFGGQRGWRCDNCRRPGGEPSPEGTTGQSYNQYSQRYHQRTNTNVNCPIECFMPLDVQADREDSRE

The substance “Human plasma fibronectin, P02751 32-2477 (other; Alexa^488 label where used as FN^488)” yielded a reduction of FN-null MEF adhesion to full-length fibronectin by α5 integrin-blocking antibody of 53% and a reduction of FN-null MEF adhesion to full-length fibronectin by β1 integrin-blocking antibody of 71.3%.
